Measurements published in the supplement of paper PMC10724198.
± gives the standard deviation of the averaged measurements.

Tested on: Saccharomyces cerevisiae
Assay: protein stability index of tFT-peptide fusion (C-terminal peptide) (PSI (0-1 scale)); higher = more stable (slower turnover)
Conditions: temperature: 30 C
Protocol: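 MPS profiling in S. cerevisiae of the yeast C-terminome library: the last 12 aa of each annotated ORF are fused to the C-terminus of a sfGFP-mCherry timer, after a GGGS linker. Cells are FACS-sorted into 8 mCherry/sfGFP bins and deep-sequenced. PSI runs from 0 (unstable) to 1 (stable); wild type and das1Δ backgrounds, two technical replicates each.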

[1] = genetic background: das1 deletion

Sequence | protein stability index [1] | protein stability index (genetic background: wild type)
FTDDSGTIKQEE [CMR1 C-terminal 12 aa] | 0.713 ± 0.0073 | 0.703 ± 0.026
SEEKSNLIEFEA [MDR1 C-terminal 12 aa] | 0.705 ± 0.013 | 0.6734 ± 0.0028
AIRRENEWAEDR [SKP1 C-terminal 12 aa] | 0.6841 ± 0.005 | 0.709 ± 0.0089
THPAGTLENATQ [YIL102C C-terminal 12 aa] | 0.694 ± 0.022 | 0.742 ± 0.017
ILELVNEDYQSI [MRP17 C-terminal 12 aa] | 0.738 ± 0.048 | 0.71 ± 0.039
ESDLAAARSEDK [VTH1 C-terminal 12 aa] | 0.7237 ± 0.0031 | 0.659 ± 0.012
FKKSYKGVSKNL [MGM1 C-terminal 12 aa] | 0.704 ± 0.013 | 0.695 ± 0.022
GWQTGALIIKKH [SAF1 C-terminal 12 aa] | 0.729 ± 0.0083 | 0.763 ± 0.11
SLMIFSSFFLYN [YOR139C C-terminal 12 aa] | 0.6872 ± 0.001 | 0.479 ± 0.02
STKFEEDQVAPL [ICP55 C-terminal 12 aa] | 0.679 ± 0.007 | 0.686 ± 0.029
DDDEMDIEFEDV [TFA1 C-terminal 12 aa] | 0.71135 ± 0.00066 | 0.739 ± 0.01
KISTHSNAPSPG [SMA1 C-terminal 12 aa] | 0.669 ± 0.015 | 0.675 ± 0.022
SLRGCKSVFRRI [HMI1 C-terminal 12 aa] | 0.663 ± 0.0076 | 0.741 ± 0.029
LEKDTRQDTKAN [MCO10 C-terminal 12 aa] | 0.693 ± 0.0045 | 0.671 ± 0.025
KKPLFKRKVLQI [YNL205C C-terminal 12 aa] | 0.6883 ± 0.0025 | 0.422 ± 0.011
FDVIKECQTLSN [PUG1 C-terminal 12 aa] | 0.683 ± 0.037 | 0.6484 ± 0.0017
NVTAVKALNECF [SKI3 C-terminal 12 aa] | 0.6887 ± 0.0054 | 0.652 ± 0.026
QHQQENPNLIDI [YAP1802 C-terminal 12 aa] | 0.707 ± 0.024 | 0.734 ± 0.063
TASYLKDAVYLH [ATP6 C-terminal 12 aa] | 0.699 ± 0.031 | 0.703 ± 0.025
DLVRTDQLCPNY [CQD1 C-terminal 12 aa] | 0.681 ± 0.021 | 0.682 ± 0.035
DVETRVQNLEQT [DPB4 C-terminal 12 aa] | 0.713 ± 0.032 | 0.699 ± 0.013

Sequence | protein stability index [1] | protein stability index (genetic background: wild type)
EAHREQIGGATY [SMT3 C-terminal 12 aa] | 0.691 ± 0.016 | 0.676 ± 0.011
TALLIDNILTCK [MRM1 C-terminal 12 aa] | 0.7 ± 0.021 | 0.694 ± 0.048
FTVKANSQSESA [GRX7 C-terminal 12 aa] | 0.6758 ± 0.0034 | 0.694 ± 0.027
ALVDQLIAKYSS [ACB1 C-terminal 12 aa] | 0.703 ± 0.029 | 0.663 ± 0.042
GTDLLKENRNCS [YML096W C-terminal 12 aa] | 0.669 ± 0.0067 | 0.6895 ± 0.0012
KDELERVAKSNR [RPS5 C-terminal 12 aa] | 0.6889 ± 0.0032 | 0.694 ± 0.017
ELFTILHDLTAA [TPS3 C-terminal 12 aa] | 0.718 ± 0.086 | 0.6612 ± 0.005
KNWGPKARPNTS [TRM1 C-terminal 12 aa] | 0.698 ± 0.016 | 0.655 ± 0.011
GVVKFNSEHYRD [SAP185 C-terminal 12 aa] | 0.721 ± 0.045 | 0.668 ± 0.034
LEYLQDTYQVLK [FAR3 C-terminal 12 aa] | 0.702 ± 0.031 | 0.733 ± 0.01
TCVYKKPERHKA [TCM62 C-terminal 12 aa] | 0.707 ± 0.03 | 0.701 ± 0.024
KATQAIIGYTFK [VMA13 C-terminal 12 aa] | 0.70395 ± 0.00035 | 0.71 ± 0.023
WKLLDDSELGWY [RGT1 C-terminal 12 aa] | 0.836 ± 0.0089 | 0.804 ± 0.052
KNRKRVLGVAYL [PXP3 C-terminal 12 aa] | 0.783 ± 0.022 | 0.837 ± 0.063
QPPAAAEGEAPK [BMH1 C-terminal 12 aa] | 0.712 ± 0.024 | 0.715 ± 0.026
FHDWFIRQFVSN [SNO1 C-terminal 12 aa] | 0.73 ± 0.0093 | 0.321 ± 0.034
QLQLIMFGKKFK [AAC1 C-terminal 12 aa] | 0.698 ± 0.0099 | 0.717 ± 0.036
LIEDVNKLKIKA [SOV1 C-terminal 12 aa] | 0.634 ± 0.029 | 0.645 ± 0.025
TSTNTIYATVTI [DSE2 C-terminal 12 aa] | 0.688 ± 0.018 | 0.6656 ± 0.001
ADQELFMGIMNA [NMD5 C-terminal 12 aa] | 0.676 ± 0.012 | 0.677 ± 0.0097
